Reference: patent US20220275350A1 (MAX PLANCK GESELLSCHAFT ZUR F RDERUNG DER WISSENSCHAFTEN E V, published 2022)

Target: T1, cpHaloΔ9mer
T1 construct: also called cpHalo_9mer; cpHalo156-141
Assay: ITC; 9mer peptide (~30 mM) titrated into 0.6 mM cpHaloΔ9mer; three independent measurements; one-site model
Experimental: Heat of dilution of the peptide was subtracted prior to the analysis. Kd was calculated from three independent measurements, error represents standard deviation.
This maximal concentration of peptide was titrated against a 0.6 mM cpHaloΔ9mer (FIG. 1).

T1 sequence (chain, as listed by the source mutant): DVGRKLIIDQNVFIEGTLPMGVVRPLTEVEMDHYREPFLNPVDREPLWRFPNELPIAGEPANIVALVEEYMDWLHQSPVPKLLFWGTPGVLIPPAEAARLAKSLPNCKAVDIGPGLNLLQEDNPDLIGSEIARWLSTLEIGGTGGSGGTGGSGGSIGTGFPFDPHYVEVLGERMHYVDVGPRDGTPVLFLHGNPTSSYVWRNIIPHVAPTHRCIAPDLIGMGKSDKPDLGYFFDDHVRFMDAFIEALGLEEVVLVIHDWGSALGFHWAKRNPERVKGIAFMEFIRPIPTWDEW

Kd: 5.3 mM
B1: 9mer peptide (peptide)
peptide: ARETFQAFR
notes: Free peptide titrated in the ITC assay; also called PEP1
